From the domain aggregation screens of Martell et al. (2025)

Test: soluble fraction after stress (log2 fold change); higher = more stays soluble; pooled small domains, quantitative proteomics
Details: stress: 75 degC
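Note: 20 min heating vs room temperature control held 20 min.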

| Sequence | soluble fraction (log2) |
| --- | --- |
| HMHWDIAQADAKQEVMDSSDDKEAIERIQANMFKDPKDHDQEYANKILNDMIDEIKEKGLEAMQHKFAQE | -0.443 |
| HMHYELTPDAEKQLSALGLTAELVERILEEANDRRPIPGTNRTVYSLHGYSVEFSNTNHKIVSVRKG | -0.882 |
| HMIAAPFVVKDIRVDGVQPATGEAIISSLPVKVGQTATDADVSNVVRQLFSLNRFQNVQATREGNTLVIKV | -0.0493 |
| HMIAGHLQIKNDYYYMVLSYTDSDGKRKQPWIPTGLPMKGNKKRAEKMLIETRQTYVPPVSSG | -3.41 |
| HMIAIGDDARLDDAARFFRIAEDSYAAGDYRKSKENYIEARKLYAELGDHEKVNLINSKISAIDSIT | 0.0977 |
| HMIAVIKPSATAEQKAGLVDWIRGQGIDVHISEGHDYTVLGLIGDTSKIDMDLIASLDIVDSVKRVA | -0.338 |
| HMIDAHTTLLAKRLESKGFLALTDKSSAEEIYEEFGISKKAFKKALGALYKERLVRIGEDGVVWM | -1.67 |
| HMIDDPTAVILRLVSEKQVIRRDDVVKALSVTPQKAYRLLKTMTTGGLLTRSGARRTTVYGLPDARER | 0.223 |
| HMIDEKVQAADKSIEIGNLSPLKGLVTDDEMHELEKLFEKVMALKDFEVNDVGAGRKYIEAYVSFFKFAEG | -0.418 |
| HMIDELNVGDIRFYLNRYGKEIQIEIIRIGDDGSVYARTMADNALFRVPEARLKNIGEKVPAEEVQRG | -1.42 |
| HMIDFTHEDIERLWNAIVHYVPERQKSDMAIDFIKSLEDIGVEHDEIKASAEYDPKLEEAINTVY | -0.424 |
| HMIDIDNLEKAAILLLSMGTEAAAKVMQKLSRDEVQRLISKMASLSGVSSIEAKWTLQQFFNQYREQSG | -0.786 |
| HMIDLSELINKTGSAYTNLRPSGTAVIGDDRVDVVTEGTFVEKDRPVKVVAVEGQRVVVREVE | 0.209 |
| HMIDMQIDTARFGTLGVDDDKIITFPKGLPGFEDERRFFLMDHSGSSKIKWLHSADNPGLALV | -0.0491 |
| HMIDVGSKIRSLRKSKNISISTLAKNSDLSTGLISQIERNMVVPSIVAMWKISKALDINIGYFFE | -3.13 |
| HMIEDMQQYIKEIRQMVSGRLDMTRNLEDEEIRDTIAELVAEESRKQYMTLTEKREVIEGVFNSMR | -0.0831 |
| HMIEEIAVPEILGMQEEEAKAKIEGLGLVFNVTDRVKSNEYEKGEVMYQSVGPDDTTVKSGYPINVTISEG | 0.196 |
| HMIEEIPYSQFMSMLEEGKIDKAEIYQDSIIFSTKPDEQGKAGYYSIAYMKDNVLADRLYDAGVEFTPII | 0.293 |
| HMIEGEQVRLLRLLERQEGGMLPLGDKSPASDILLLTGMSKKTFKMAVGALYKAQMITMTPTSIKLVK | -3.18 |
| HMIEGETPEQTMERVSKDPEIVQILQDPVMQGILAQARENPAALQDHMKNPEVYKKINMLIAAGVIRT | 0.278 |
| HMIEGSSDWKPNMILDDGGDLTKIIHEEYQDLLDDIRGLSEETTTGVLRLYEMEKENSLAVPAINVND | 0.171 |
| HMIEKGSDALEKELRKNNLSINEFLTNKNIDIILDELKLKDIDDLYVNIALGKYTPNQIIKIVNK | -0.0502 |
| HMIELEGVISSVLAGTMFKVKLRGNGHEVLAHISGKMRKKFIRLVIGDAVKIEMSPYDMDKARIVYRI | -0.318 |

| Sequence | soluble fraction (log2) |
| --- | --- |
| HMIELTTDYKKRVVEALVSARENYSGSDSDFARKWSIDKTVYSRLKKGYQEGLLSVGKYIELGMELNVSSR | -1.87 |
| HMIENITIELNKKALALDFELNKDLPEGVLETIPTLVSLMVRFDPLTVSYHFLRDYIDALLESNLNVDL | -0.0886 |
| HMIENMQEYVRHIRAAVSDRLDLTREVEDDEIREVISQIVAEESRQNYLSLGERQTVIETVFNSMR | -0.339 |
| HMIERLVEFVHTLRHSGVRVSMAEAMDAAEALRHTPITERQIFKTALQSVLVKEHQDIPAFDAAFERFFL | -3.04 |
| HMIESLKGILHKKDPTIAIIDVGGVRLSVNITLSTYEKLEEINSSIELLTYFNVREDAMELYG | -0.468 |
| HMIETIIGAEGKVLETIDNFNQKGVVALAGKEWTARSADASIIPEGAKVSVVEISGVKLIVTQN | 0.251 |
| HMIETLGDATFKRLKAMILDGTLEPGTRLSEKKFADHLGVSRTPVREAIGQLVSEGLAKRSAGSAPVVSS | -0.0859 |
| HMIFSIIPGQIRLTKMEIADGYLVLYGFTPSKEIYNLHLNPALKSIFTSSETSFIPVSGGLKFMSTNKL | -2.35 |
| HMIGAKVLVNGQLHRDSYGEGPGQTESNATRLVNYINMKGSHPYHVTTLDGGWRGWVTADSVQV | 0.139 |
| HMIGDNNELFQKAQLTPREKEVALLLLQGETNSDIAKILYVGLSTVKKHISSIFEKTKVKSRTEFISKVR | -1.6 |
| HMIGDYALILNIKGGSDWYLGNRVELLFTDGTSKIVTTDKDYNAKKDMVPTQIVTYKVNDNGEYSLKALPT | -2.13 |
| HMIGEKLKEIREKTGMNKKEFAQYLGLKYTTYNNYETEAREPASDFLILISTKFDVSIDYLLGLQ | -1.15 |
| HMIGIEALAGEIDRVRQVLTGGGGLSDVQLFSQLKALNEIKAALGASPDPRAPELVQRVDQLLEAAFRS | 0.395 |
| HMIGIGSDVPNKLKPAIYSFGLVAVGEKSVIPDGVQIGKNTAVSGVTSKEDYPDGVLESGETLIKA | 0.186 |
| HMIGKLTSSKLAAIHKMKTNELLAHFTEKGFLNINDAGKYILTQQGKDVGAEFKTSQYGGYFLWPENIE | -0.666 |
| HMIGTPLSEWQKDAPEEITRDQIAELVILKFVTVEQLALASDAQLQRIGMGGVGLRERAKLYLNRK | -1.87 |
| HMIGVNMEKSTVEKFANELNLPIDLLLKQLESAGIKKTSGAEELLEADKSALLNYLQIEHGA | 0.725 |
| HMIGVQEFAMTYALTRRETEITQLIIQGKSNAMIAGELFISETTVKKHVSNIFEKTGVSRREELMVRVQAE | -1.98 |
| HMIHANGLTDRQEMILEFIRSYISENNYPPSVREIGKGVGLASSASVHNNMKKLASLGFLNWDTD | -1.93 |
| HMIHFDHPERSILDTMLYEKKGMTAQSARNRLAAYQFQGEDVFKPVSVLSGGELSRITLAIKNAMADK | -0.36 |
| HMIHQPNNETTRNLIAGVVKKSLSVWETRVQVDGVDVTTAKDNLAEVHINIRYRLRHNQTPASLGLRLNLG | -0.0232 |
| HMIHSEDMDDHILGHKLVDQYLNKHIEFDNIKKAWNYHTVAIKKFGRYPHRNKILKRESTIEEIDFLKQP | 0.252 |
| HMIHSEEIQDHIFVKQLGEVFLRNHINYENIMKSWDDHTNVIKRFRRYPHRNKILNRESTIDEISFLKE | 0.176 |

| Sequence | soluble fraction (log2) |
| --- | --- |
| HMIIDTELMTRVMKFGFSQADASDLVAQHSDDLLRTAISRVEARAESKGMTPLETPAGYFRWTLQDLVRNP | -2.04 |
| HMIIIMKKSATNSEVRKVIERAEKEGLTVQVNQLEKQQVLGLVGDTRLIQDVAFLRYEGVENVERI | -2.37 |
| HMIILYTDEQQRIIDRLNEFIGEQPSQNEAAKLLGISAPILTNLRKGTYTGTVDKFMNKLAAYFNIKADLG | -1.3 |
| HMIIMVNLYQIWDKEVQGLDSVGAKPEQIEARRQAIAAHFESKARQAGMSSKDIYATLDNFDTYSRQKTS | -2.26 |
| HMIINFDAIRLTTELNKYNRHKAIPNSFFDGTFTILDVRDLYDSLSPKVQKIADTLIEQYNVDVKQ | -1.82 |
| HMIISMKKGATPQEISHVRKLIEELGYKVHESQGSERMVFGAIGDERSKHRLTSLEAQPGVEKVIPILA | 0.0278 |
| HMIISMKKTATKEQIAHVRELIEGMGYKAHMSVGAERVIFGAIGDERGKERLVSLEAQPGVEKVIPIL | -0.445 |
| HMIITLNIENLKRARENAGLTQTQAAQKIGVSDGTYKNYEQGKREPNGDKIVTIANAFGVTTDYLLGR | -0.475 |
| HMIIVMRKGATEAQVNDIVERVRAAGFGVHLSQGEERTIIGAIGGDRAVLADLNLEAAPGVERVTPIS | -0.176 |
| HMIIYGLNPVKDFINLFPNKISTLFISKNKLSDSEMKSVVNINTVYVSDAELKRITGTTKHQSLAAEID | -1.2 |
| HMIKILGSAYRHGLDDDDILRAWNYHIQEFFEGEDPEKIVRLGFDTHGRLLEIGGEIYPGGGEKIFHAM | -0.733 |
| HMIKITLPDGSVKEYKKGITPAEVAQSISEGLARNVISASYNGKTIETVTPLTTDGSLVLYTWDSPEGK | 0.0404 |
| HMIKLTVRQQEILDLIARSIDQTGFPPTRAEIAAELGFKSVNAAEEHLQALARKGVIEMVPGISRGIRLVQ | -1.48 |
| HMIKRNPLDEIEGVGPGRKKALLHAFGSAKGVSRASVVDLVKVEGVSQALAERIHDFFHPATR | -0.299 |
| HMIKSIRELAEVITLWKNQGKTILIAEHRLSYLMDLADRVLYMKDGQIENDFSMADFRKIPPDEISRMGLR | 0.103 |
| HMIKVAANESNRSDVLEIVRLFRVRVVDVNPESLTIEATGAEGKIDALLGLLEHYGVIELVRSGAVAVT | -1.86 |
| HMILESREKYLGEVLEVLVEEEKEGEYFGYSQNYLRVKFKLEEKNLINQLINIKIKSIEDDILIGEKEN | -3.46 |
| HMILKNVTSDLANKRLDKVASILFQTYSRTQIKKWILEGRVLVNGEISNPKDHVHENDEIEINPI | -1.9 |
| HMIMISKSFEINEDNINKRLDIFLTENLDGLSRGIVQKYISLEQITVNKESSHKDYRLKLDDFIEVKIQAH | -4 |
| HMIMNDIQAKVLEIAETKDLGSITYYRLSKMLGVDHPYRVKYAIDKLIEKGLLTAKSDGSITKAI | -1.47 |
| HMIMTTKVSGIMFDKFNPSAILNINGMDYLVRSGDIINGYKILSIGQETVTVQYGANVYKASVG | -4.48 |
| HMIMVAGHLQIKKGKYYMVLELKSESGERKTKWISTGLSAKGNKRKAEAMLEEARENYQSTDA | -1.13 |
| HMINIFKVKKAMEEIFASEWEDSPYTDQKISQILWSRGFSVSTGLVEKYRGQMGVPDANSRLNLN | -2.49 |
